Results published in publication PMC8567202, “Phosphoinositide-binding activity of Smad2 is essential for its function in TGF-β signaling” (The Journal of Biological Chemistry, 2021).
Residue numbers refer to the chain shown, from its start. Numbers in names are those of the source.

B1: Smad2-E425K: charge-reversal mutant of full-length Smad2; PI(4,5)P2 and TβRI binding-enhanced (protein)
chain: MSSILPFTPPVVKRLLGWKKSAGGSGGAGGGEQNGQEEKWCEKAVKSLVKKLKKTGRLDELEKAITTQNCNTKCVTIPSTCSEIWGLSTANTVDQWDTTGLYSFSEQTRSLDGRLQVSHRKGLPHVIYCRLWRWPDLHSHHELKAIENCEYAFNLKKDEVCVNPYHYQRVETPVLPPVLVPRHTEILTELPPLDDYTHSIPENTNFPAGIEPQSNYIPETPPPGYISEDGETSDQQLNQSMDTGSPAELSPTTLSPVNHSLDLQPVTYSEPAFWCSIAYYELNQRVGETFHASQPSLTVDGFTDPSNSERFCLGLLSNVNRNATVEMTRRHIGRGVRLYYIGGEVFAECLSDSAIFVQSPNCNQRYGWHPATVCKIPPGCNLKIFNNQEFAALLAQSVNQGFEAVYQLTRMCTIRMSFVKGWGAKYRRQTVTSTPCWIELHLNGPLQWLDKVLTQMGSPSVRCSSMS
modifications: left off: His6, N-terminal, state not stated
B2: Smad2 WT: bacterially expressed full-length Smad2 wild-type (protein)
chain: B1 chain with K425E
modifications: left off: His6, N-terminal, state not stated
notes: bacterially expressed full-length Smad2 wild-type

How the values were obtained:
Type in all cases: cell-based
[1] = system: HeLa cells; test: Nuclear translocation of EGFP-Smad2
Protocol: (§1) Two separate gels were used to accommodate all mutants. An empty vector transfection (vehicle) was used for a negative control for each gel. Glyceraldehyde 3-phosphate dehydrogenase (GAPDH) was used as a gel loading control. Data in A and B are quantified in Fig. S3A. C, TGF-β stimulated (10 ng/ml for 1 h) nuclear translocation of mouse EGFP-WT, -K420A, -W422A, -E425K, -Y426A, and -R427A/R428A transfected into HeLa cells whose endogenous Smad2 was suppressed by siRNA. For Smad2-WT, the effect of PI(4,5)P2 depletion was measured. Arrows indicate nuclear accumulation of EGFP-WT and EGFP-E425K. Scale bars indicate 10 μm. D, quantification of (C). (Inuc/Icyto) was calculated from total nuclear and cytosolic fluorescence intensity values. Blank and black bars indicate values before and after TGF-β stimulation. Error bars indicate S.D. values from >3 measurements (n = 10). E, Smad2 transcriptional activity measured by the luciferase assay. Blank and black bars indicate values before and after TGF-β stimulation. Error bars indicate S.D. values from >3 measurements (n = 10).
The ratio of nuclear to cytoplasmic protein was calculated from the fluorescence intensity of nucleus (Inuc) and the cytoplasm (Fcyto) in cross-section images of cells using the line profile function of Image-Pro Plus software (Media Cybernetics). Briefly, at least five different lines were drawn across the cross-sectional image of each cell and the average Inuc and ICyto values were calculated along the lines. Typically, more than ten cell images were analyzed for each data set to determine the average and SD values.

[2] = system: Smad2 transcriptional activity; test: Dual luciferase reporter assay for Smad2 transcriptional activity; settings: for Smad2 transcriptional activity after TGF-β stimulation: Smad2-suppressed HeLa cells, luciferase, 10 ng/ml TGF-β for 48 h
Protocol: as §1
HeLa cells were plated on 6-well plates at the density of ∼1.5 × 10^5 and treated with siRNA as described above. The reporter gene containing three TGF-β/activin response element (ARE) coupled with the luciferase gene (pGL2 3ARE-Lux: Addgene) was used for enhanced activity ([55]). On translocation into the nucleus, receptor-activated Smad2 associates with the DNA-binding protein FAST1 to form a transcriptional complex on the ARE of the Mix.2 promoter. After 24 h, the cell media were replaced with fresh media and cells were cotransfected with 375 ng pGL2 3ARE-Lux experimental vector, 37.5 ng pGL4.73[hRluc/SV40] internal control vector (Promega), 337.5 ng FAST1, and 750 ng of pcDNA 3.1 plasmid harboring Smad2 WT or mutant using the jetPRIME transfection system (Polyplus transfection) according to the manufacturer's protocols. After 24 h of transfection, cells were placed in fresh media and stimulated with 10 ng/ml TGF-β for 48 h. Then the cells were washed with phosphate buffer saline, and the dual luciferase reporter assay was performed according to the manufacturer's protocols (Promega). All 3ARE-Luc activity values were normalized using the pGL4.73[hRluc/SV40] values as a reference.

[3] = system: HeLa cells; test: Smad2 phosphorylation (pS465/pS467), Western blot
Protocol: as §1
HeLa cells were plated on 6-well or 48-well plates at the density of ∼1.5 × 10^5 or 1.25 × 10^4 for 24 h and 30 nM human Smad2 (or SARA) DsiRNAs (IDT: see sequences below) were transfected into cells using the jetPRIME system (Polyplus transfection) according to the manufacturer's protocols. After transfection with siRNA for 24 h, the medium was exchanged with a fresh one and cells were transfected again with 1 μg/ml of the mouse Smad2 expression vector. In total, 24 to 48 h after transfection, cells were used for further treatment or Western blot analysis. The sequences of DsiRNAs are as follows: SMAD2-siRNA1 (sense: 5′-[…]-3′; antisense: 5′-[…]-3′); SMAD2-siRNA2 (sense: 5′-[…]-3′; antisense: 5′-[…]-3′); SMAD2-siRNA3 (sense: 5′-[…]-3′; antisense: 5′-[…]-3′); SARA-siRNA1 (sense: 5′-[…]-3′; antisense: 5′-[…]-3′); SARA-siRNA2 (sense: 5′-[…]-3′; antisense: 5′-[…]-3′).
Transfected cells or treated cells were lysed in the cell lysis buffer (20 mM Tris-HCl, pH 7.5, containing 150 mM NaCl, 1 mM Na2EDTA, 1 mM EGTA, 1% Triton-X, protease inhibitors, and phosphatase inhibitors) (1 mM Na3VO4, 1 mM NaF, 1 μg/ml leupeptin, 1 mM phenylmethanesulfonylfluoride, 1.5 mM benzamidine, and 2 μg/ml pepstatin). The total protein concentration of the cell lysate was determined by the Pierce BCA protein assay kit (Thermo scientific). The same amounts of proteins were loaded onto a polyacrylamide gel to run sodium dodecyl sulfate–polyacrylamide gel electrophoresis. Proteins were separated and transferred to a polyvinylidene difluoride membrane. The membrane was blocked with 5% bovine serum albumin for 1 h and incubated overnight at 4 °C with various antibodies (1:1000 dilution for all antibodies). After the unbound antibodies were removed by washing with 0.1% Tris buffer saline with 0.1% Tween20, the membranes were incubated with the horseradish peroxidase secondary antibody (1:5000 dilution) for 1 h at room temperature. The membranes were washed three more times with 0.1% Tris buffer saline with 0.1% Tween20 to remove the unbound horseradish peroxidase secondary antibody before imaging. The chemiluminescence intensity of protein bands in the gel was analyzed and documented by the Azure 500Q Imaging System.

[4] = HeLa cells, PI(4,5)P2 depletion

Molecule | nuclear transport after TGF-β stimulation ([1]; HeLa cells with endogenous Smad2 suppressed, 10 ng/ml TGF-β for 1 h) | Smad2 transcriptional activity after TGF-β stimulation [2] | Smad2 phosphorylation after TGF-β stimulation ([3]; Smad2-depleted HeLa cells, 10 ng/ml TGF-β, 48 h) | nuclear transport after PI(4,5)P2 depletion ([1]; HeLa cells, PI(4,5)P2 depletion, TGF-β 10 ng/ml for 1 h) | TGF-β-induced Smad2 transcriptional activity after PI(4,5)P2 depletion [2, 4] | Smad2 phosphorylation after PI(4,5)P2 depletion [3, 4]
B1 | excessively transported to the nucleus | higher transcriptional activity than exogeneous Smad2 WT | phosphorylated to a larger extent than WT |  |  | 
B2 |  | fully restored Smad2 transcriptional activity |  | abrogated the nuclear transport of Smad2 WT | abrogated TGF-β-induced Smad2 transcriptional activity | greatly suppressed Smad2 phosphorylation
